Measured values published in patent US20120283184A1 (published 2012).

B1: 3′B11 PR4 (designed binder)
chain: EVVAATPTSLLISWRHPHFPTRYYRITYGETGGNSPVQEFTVPLQPPTATISGLKPGVDYTITVYAVTETWNDHEIRTPISINYRT
B2: 3′B12 PR4 (designed binder)
chain: EVVAATPTSLLISWRHPHFPTRYYRITYGETGGNSPVQEFTVPLQPPTATISGLKPGVDYTITVYAVTVAHENRELLTPISINYRT
B3: 3′D2 PR4 (designed binder)
chain: EVVAATPTSLLISWRHPHFPTRYYRITYGETGGNSPVQEFTVPLQPPTATISGLKPGVDYTITVYAVTVESNGHALFVPISINYRT
B4: 3′C5 PR4 (designed binder)
chain: EVVAATPTSLLISWRHPHFPTRYYRITYGETGGNSPVQEFTVPLQPPTATISGLKPGVDYTITVYAVTDAMYGRELMTPISINYRT
B5: 3′H11 PR4 (designed binder)
chain: EVVAATPTSLLISWRHPHFPTRYYRITYGETGGNSPVQEFTVPLQPPTATISGLKPGVDYTITVYAVTLAHNGNELLTPISINYRT
B6: 3′H9 PR4 (designed binder)
chain: EVVAATPTSLLISWRHPHFPTRYYRITYGETGGNSPVQEFTVPLQPPTATISGLKPGVDYTITVYAVTHGPYDQVLLTPISINYRT
B7: 3′F9 PR4 (designed binder)
chain: EVVAATPTSLLISWRHPHFPTRYYRITYGETGGNSPVQEFTVPLQPPTATISGLKPGVDYTITVYAVTLGPNDRELMTPISINYRT
B8: 3′E10 PR4 (designed binder)
chain: EVVAATPTSLLISWRHPHFPTRYYRITYGETGGNSPVQEFTVPLQPPTATISGLKPGVDYTITVYAVTAGHKDQELLTPISINYRT
B9: 3′G7 PR4 (designed binder)
chain: EVVAATPTSLLISWRHPHFPTRYYRITYGETGGNSPVQEFTVPLQPPTATISGLKPGVDYTITVYAVTEGQNDQLLFIPISINYRT
B10: 3′E11 PR4 (designed binder)
chain: EVVAATPTSLLISWRHPHFPTRYYRITYGETGGNSPVQEFTVPLQPPTATISGLKPGVDYTITVYAVTVGPHDRELLTPISINYRT
B11: 3′C8 PR4 (designed binder)
chain: EVVAATPTSLLISWRHPHFPTRYYRITYGETGGNSPVQEFTVPLQPPTATISGLKPGVDYTITVYAVTEGLNDHELMIPISINYRT
B12: 4C9 PR3 (designed binder)
chain: EVVAATPTSLLISWRHPHFPTRYYRITYGETGGNSPVQEFTVPLQPPTATISGLKPGVDYTITVYAVTLAQNDHELLTPISINYRT
B13: 3′F3 PR4 (designed binder)
chain: EVVAATPTSLLISWRHPHFPTRYYRITYGETGGNSPVQEFTVPLQPPTATISGLKPGVDYTITVYAVTLGHNDRELLTPISINYRT
B14: 3′H10 PR4 (designed binder)
chain: EVVAATPTSLLISWRHPHFPTRYYRITYGETGGNSPVQEFTVPLQPPTATISGLKPGVDYTITVYAVTWAWNDHELMTPISINYRT
B15: 3′C3 PR4 (designed binder)
chain: EVVAATPTSLLISWRHPHFPTRYYRITYGETGGNSPVQEFTVPLQPPTATISGLKPGVDYTITVYAVTMAQNGHALFTPISINYRT
B16: 3′F12 PR4 (designed binder)
chain: EVVAATPTSLLISWRHPHFPTRYYRITYGETGGNSPVQEFTVPLQPPTATISGLKPGVDYTITVYAVTLSQTDHELLTPISINYRT
B17: 3′F6 PR4 (designed binder)
chain: EVVAATPTSLLISWRHPHFPTRYYRITYGETGGNSPVQEFTVPLQPPTATISGLKPGVDYTITVYAVTIEQSGLQLMTPISINYRT
B18: 3′G10 PR4 (designed binder)
chain: EVVAATPTSLLISWRHPHFPTRYYRITYGETGGNSPVQEFTVPLQPPTATISGLKPGVDYTITVYAVTLTHNDHELLTPISINYRT
B19: 3′D9 PR4 (designed binder)
chain: EVVAATPTSLLISWRHPHFPTRYYRITYGETGGNSPVQEFTVPLQPPTATISGLKPGVDYTITVYAVTGYYNDRELLTPISINYRT
B20: 3′F2 PR4 (designed binder)
chain: EVVAATPTSLLISWRHPHFPTRYYRITYGETGGNSPVQEFTVPLQPPTATISGLKPGVDYTITVYAVTLGKNDHELLTPISINYRT
B21: 4B11 PR3 (designed binder)
chain: EVVAATPTSLLISWRHPHFPTRYYRITYGETGGNSPVQEFTVPLQPPTATISGLKPGVDYTITVYAVTVGQNNHELITPISINYRT
B22: 3′G1 PR4 (designed binder)
chain: EVVAATPTSLLISWRHPHFPTRYYRITYGETGGNSPVQEFTVPLQPPTATISGLKPGVDYTITVYAVTLALNGHELFTPISINYRT
B23: 3′E3 PR4 (designed binder)
chain: EVVAATPTSLLISWRHPHFPTRYYRITYGETGGNSPVQEFTVPLQPPTATISGLKPGVDYTITVYAVTMAQYGRELLTPISINYRT
B24: 3′E9 PR4 (designed binder)
chain: EVVAATPTSLLISWRHPHFPTRYYRITYGETGGNSPVQEFTVPLQPPTATISGLKPGVDYTITVYAVTVEQDGHVLYIPISINYRT
B25: 3′D8 PR4 (designed binder)
chain: EVVAATPTSLLISWRHPHFPTRYYRITYGETGGNSPVQEFTVPLQPPTATISGLKPGVDYTITVYAVTAGPNDHQLFTPISINYRT
B26: 3′D3 PR4 (designed binder)
chain: EVVAATPTSLLISWRHPHFPTRYYRITYGETGGNSPVQEFTVPLQPPTATISGLKPGVDYTITVYAVTPGPGDRELITPISINYRT
B27: 3′H3 PR4 (designed binder)
chain: EVVAATPTSLLISWRHPHFPTRYYRITYGETGGNSPVQEFTVPLQPPTATISGLKPGVDYTITVYAVTLGLNDRELMTPISINYRT
B28: 3′C12 PR4 (designed binder)
chain: EVVAATPTSLLISWRHPHFPTRYYRITYGETGGNSPVQEFTVPLQPPTATISGLKPGVDYTITVYAVTIGPNNHELLTPISINYRT
B29: 3′H8 PR4 (designed binder)
chain: EVVAATPTSLLISWRHPHFPTRYYRITYGETGGNSPVQEFTVPLQPPTATISGLKPGVDYTITVYAVTVGHNDRELITPISINYRT
B30: 3′G2 PR4 (designed binder)
chain: EVVAATPTSLLISWRHPHFPTRYYRITYGETGGNSPVQEFTVPLQPPTATISGLKPGVDYTITVYAVTLAQNGHELITPISINYRT
B31: 3′F1 PR4 (designed binder)
chain: EVVAATPTSLLISWRHPHFPTRYYRITYGETGGNSPVQEFTVPLQPPTATISGLKPGVDYTITVYAVTVAQDGHFLYTPISINYRT
B32: 3′H1 PR4 (designed binder)
chain: EVVAATPTSLLISWRHPHFPTRYYRITYGETGGNSPVQEFTVPLQPPTATISGLKPGVDYTITVYAVTFAQNDHQLFTPISINYRT
B33: 3′G3 PR4 (designed binder)
chain: EVVAATPTSLLISWRHPHFPTRYYRITYGETGGNSPVQEFTVPLQPPTATISGLKPGVDYTITVYAVTFDQSDHELLTPISINYRT
B34: 3′E5 PR4 (designed binder)
chain: EVVAATPTSLLISWRHPHFPTRYYRITYGETGGNSPVQEFTVPLQPPTATISGLKPGVDYTITVYAVTVAWDGRELFTPISINYRT
B35: 3′E1 PR4 (designed binder)
chain: EVVAATPTSLLISWRHPHFPTRYYRITYGETGGNSPVQEFTVPLQPPTATISGLKPGVDYTITVYAVTVAPNGHELFTPISINYRT
B36: 4F4 PR3 (designed binder)
chain: EVVAATPTSLLISWRHPHFPTRYYRITYGETGGNSPVQEFTVPLQPPTATISGLKPGVDYTITVYAVTLAQNDRELITPISINYRT

target: T1, human vascular endothelial growth factor receptor-2 Fc chimera (KDR-Fc) (human, UniProt P35968 20-764); test: radioactive equilibrium binding, 1 nM KDR-Fc, % of input
T1 construct: range 1-764; also called human VEGFR-2; not shown: human IgG1 Fc
Method: To prepare ³⁵S-labeled binding proteins for analysis, mRNA was prepared as described above for RNA-protein fusion production but the linker ligation step was omitted. The mRNA was expressed using rabbit reticulocyte lysate translation kit (Ambion) in the presence of ³⁵S-labeled Met at 30° C. for 1 hour. Expressed protein was purified on M2-agarose Flag beads (Sigma) as described above. This procedure produced the encoded protein without the nucleic acid tail. In a direct binding assay, VEGF-R2-Fc fusions in concentrations ranging from 0 to 200 nM were added to a constant concentration of the purified protein (0.2 or 0.5 nM) and incubated at 30° C. for 1 hour in buffer B. The receptor-binder complexes were captured using Protein A magnetic beads for another 10 minutes at room temperature using a Kingfisher™ The beads were washed with six reaction volumes of buffer B. The protein was eluted from the beads with 100 μL of 0.1 M KOH. 50 μL of the reaction mixture and elution were dried onto a LumaPlate-96 (Packard) and the amount of ³⁵S on the plate was measured using a TopCount NXT instrument (Packard). The amount of fibronectin-based scaffold protein bound to the target was estimated as a percent of radioactivity eluted from Protein A magnetic beads compare to radioactivity in the reaction mixture. Nonspecific binding of fibronectin-based scaffold proteins to the beads was determined by measuring binding in the absence of KDR-Fc and represented less than 1-2% of the input. Specific binding was obtained through subtraction of nonspecific binding from total binding. Data was analyzed using the GraphPad Prizm software (GraphPad Software, Inc, San Diego, Calif.), fitted using a one site, non-linear binding equation.

T1 sequence (P35968 20-764 limits assumed, change not shown, form in doubt): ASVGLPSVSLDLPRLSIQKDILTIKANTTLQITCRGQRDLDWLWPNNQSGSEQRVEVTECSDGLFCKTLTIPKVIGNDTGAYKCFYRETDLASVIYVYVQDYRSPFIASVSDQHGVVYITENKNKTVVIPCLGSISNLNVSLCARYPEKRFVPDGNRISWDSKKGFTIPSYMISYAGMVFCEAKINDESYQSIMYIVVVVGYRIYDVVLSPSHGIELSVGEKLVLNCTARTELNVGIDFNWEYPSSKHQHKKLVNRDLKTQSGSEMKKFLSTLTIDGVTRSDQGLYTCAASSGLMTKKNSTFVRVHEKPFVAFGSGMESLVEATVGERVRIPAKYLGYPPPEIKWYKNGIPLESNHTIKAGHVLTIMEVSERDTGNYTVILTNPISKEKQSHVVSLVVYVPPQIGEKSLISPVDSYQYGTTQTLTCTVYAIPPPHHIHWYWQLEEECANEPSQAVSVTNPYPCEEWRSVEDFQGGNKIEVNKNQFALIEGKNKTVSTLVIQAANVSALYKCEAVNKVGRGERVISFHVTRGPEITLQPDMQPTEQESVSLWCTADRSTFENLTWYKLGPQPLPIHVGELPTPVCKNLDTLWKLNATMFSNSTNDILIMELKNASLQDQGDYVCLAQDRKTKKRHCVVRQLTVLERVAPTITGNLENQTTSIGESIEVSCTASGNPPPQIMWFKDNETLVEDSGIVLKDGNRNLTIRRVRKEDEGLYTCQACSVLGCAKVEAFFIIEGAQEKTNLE

Row | Binder | Binding to 1 nM KDR, %
1 | B1 | 23%
2 | B2 | 28%
3 | B3 | 19%
4 | B4 | 27%
5 | B5 | 39%
6 | B6 | 24%
7 | B7 | 18%
8 | B8 | 21%
9 | B9 | 19%
10 | B10 | 17%
11 | B11 | 19%
12 | B12 | 16%
13 | B13 | 37%
14 | B14 | 14%
15 | B15 | 32%
16 | B16 | 17%
17 | B17 | 24%
18 | B18 | 30%

Row | Binder | Binding to 1 nM KDR, %
19 | B19 | 30%
20 | B20 | 29%
21 | B21 | 15%
22 | B22 | 19%
23 | B23 | 41%
24 | B24 | 44%
25 | B25 | 27%
26 | B26 | 42%
27 | B27 | 36%
28 | B28 | 33%
29 | B29 | 20%
30 | B30 | 15%
31 | B31 | 31%
32 | B32 | 22%
33 | B33 | 31%
34 | B34 | 23%
35 | B35 | 32%
36 | B36 | 15%
